From patent US7026125, “Heterodimers of retinoid X receptors (RXRS) and other steroid hormone receptors” (Ligand Pharmaceuticals)

Tests used:
TRβ/RXRα heterodimer = TRβ/RXRα heterodimer (UniProt P10828;P19793 P10828:1-461,P19793:1-462); test: EMSA; upshifted complex; conditions: label: 32P
Method: (§1) (a) In vitro synthesized TRα, TRβ, RARα, RARβ, RARγ and TRα2 receptor proteins were preincubated either with (+) or without (−) equal amount of in vitro synthesized RXRα protein at room temperature for 10 minutes. Following this preincubation, the reaction mixtures were incubated with ^32p-labelled palindromic TRE (for 1 sequence see FIG. 2a) and analyzed by gel retardation assay as described in Experimental Procedures. […] As a control, equal amounts of TRα and RARα proteins were also mixed and incubated with labelled TRE.
(§2) In vitro translated receptor protein (1 to 5 μl depending on the translation efficiency) was incubated with the ^32P-labeled oligonucleotides in a 20-μl reaction mixture containing 10 mM hepes buffer, pH 7.9, 50 mM KCl, 1 mM DTT, 2.5 mM MgCl, 10% glycerol, and 1 μg of poly(dI-dC) at 25° C. for 20 minutes. In general, relative low receptor concentration was used to obtain the clear effect of heterodimer formation. The reaction mixture was then loaded on a 5% nondenaturing ployacrylamide gel containing 0.5×TBE (1×TBE=0.089 M Tris-borate, 0.089 M boric acid, and 0.002 M EDTA). To analyze the effect of RXRα or the nuclear proteins on receptor DNA binding activity, RXRα or the cell extracts were preincubated with receptor protein at room temperature for 10 minutes before performing the DNA binding assay. […]

TRα = target: T1, TRα (UniProt P10827-2 P10827-2:1-410); test: EMSA; monomer complex; 25 C, 50 mM KCl; conditions: label: 32P
T1 sequence: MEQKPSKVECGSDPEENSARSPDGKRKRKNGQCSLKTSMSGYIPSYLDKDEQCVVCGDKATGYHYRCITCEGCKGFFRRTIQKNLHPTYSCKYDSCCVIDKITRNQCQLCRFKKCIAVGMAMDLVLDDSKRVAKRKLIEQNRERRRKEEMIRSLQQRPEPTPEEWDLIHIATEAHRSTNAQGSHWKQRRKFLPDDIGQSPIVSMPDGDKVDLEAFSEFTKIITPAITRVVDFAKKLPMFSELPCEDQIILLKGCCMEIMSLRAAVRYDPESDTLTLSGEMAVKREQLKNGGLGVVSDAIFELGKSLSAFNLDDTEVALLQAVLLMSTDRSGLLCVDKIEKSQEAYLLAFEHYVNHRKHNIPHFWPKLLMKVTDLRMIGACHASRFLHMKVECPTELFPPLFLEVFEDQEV
Method: as §1, §2

RARγ/RXRαm4 = RARγ/RXRαm4 (UniProt P13631;P19793 P13631:1-454,P19793:61-462, RXRα N-terminal deletion of 61 aa); test: EMSA; faster migrating than RXRαm3 complex; conditions: label: 32P
Sequence of RARγ/RXRαm4 (P13631 whole entry, stated change not applied, chain 1 of 2): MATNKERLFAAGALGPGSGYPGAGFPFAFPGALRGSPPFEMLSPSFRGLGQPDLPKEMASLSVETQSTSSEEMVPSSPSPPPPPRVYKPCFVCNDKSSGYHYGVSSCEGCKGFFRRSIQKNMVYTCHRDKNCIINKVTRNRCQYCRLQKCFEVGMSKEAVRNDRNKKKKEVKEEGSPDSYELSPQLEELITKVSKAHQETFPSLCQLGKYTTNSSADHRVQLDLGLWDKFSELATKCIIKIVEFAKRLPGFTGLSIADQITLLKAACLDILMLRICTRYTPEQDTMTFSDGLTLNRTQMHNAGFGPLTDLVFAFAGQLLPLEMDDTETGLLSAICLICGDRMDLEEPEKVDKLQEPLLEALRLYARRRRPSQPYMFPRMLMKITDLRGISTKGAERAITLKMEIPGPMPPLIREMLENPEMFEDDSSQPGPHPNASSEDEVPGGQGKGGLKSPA
Sequence of RARγ/RXRαm4 (P19793 62-462, stated change not applied, chain 2 of 2): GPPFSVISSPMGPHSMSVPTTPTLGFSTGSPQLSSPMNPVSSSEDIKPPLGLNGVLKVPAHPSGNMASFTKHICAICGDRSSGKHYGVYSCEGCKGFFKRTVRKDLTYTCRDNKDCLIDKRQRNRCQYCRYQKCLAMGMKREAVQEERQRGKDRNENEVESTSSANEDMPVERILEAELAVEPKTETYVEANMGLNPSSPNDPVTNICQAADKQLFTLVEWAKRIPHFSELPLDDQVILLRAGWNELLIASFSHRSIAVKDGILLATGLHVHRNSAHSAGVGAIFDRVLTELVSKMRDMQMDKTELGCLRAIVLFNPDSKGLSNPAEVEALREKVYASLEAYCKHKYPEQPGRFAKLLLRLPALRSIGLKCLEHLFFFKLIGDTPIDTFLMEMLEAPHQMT
Method: In vitro translated receptor protein (1 to 5 μl depending on the translation efficiency) was incubated with the ^32P-labeled oligonucleotides in a 20-μl reaction mixture containing 10 mM hepes buffer, pH 7.9, 50 mM KCl, 1 mM DTT, 2.5 mM MgCl, 10% glycerol, and 1 μg of poly(dI-dC) at 25° C. for 20 minutes. In general, relative low receptor concentration was used to obtain the clear effect of heterodimer formation. The reaction mixture was then loaded on a 5% nondenaturing ployacrylamide gel containing 0.5×TBE (1×TBE=0.089 M Tris-borate, 0.089 M boric acid, and 0.002 M EDTA). To analyze the effect of RXRα or the nuclear proteins on receptor DNA binding activity, RXRα or the cell extracts were preincubated with receptor protein at room temperature for 10 minutes before performing the DNA binding assay. When antibody was used, 1 μl of the antiserum was incubated with the specific translation products at room temperature for 45 minutes before performing the experiments described above.

Flag-TRα = target: T2, Flag-TRα (UniProt P10827-2 P10827-2:1-410); test: EMSA; supershifted by anti-Flag; conditions: tags: N-terminal Flag; label: 32P
T2 sequence: T1 sequence
Method: (§3) (b) Effect of anti-Flag-TRα antibody on binding of the slow migrating complex. In vitro synthesized Flag-TRα (F-TRα) protein was incubated with in vitro synthesized RXRα protein in the presence or absence of anti-Flag antibody. The effect of antibody on DNA binding of the slow migrating complex was analyzed as described in FIG. 2a. For control, the receptor mixture was also incubated with preimmune serum (NI). The effect of anti-Flag antibody on DNA binding of Flag-RXRα, RXRα, Flag-TRα, and TRα was also analyzed. For comparison, anti-Flag antibody/Flag-RXRα-TRα interaction was run on the same gel (lanes 7–10).
as §2, with “EDTA).” for “EDTA). To analyze the effect of RXRα or the nuclear proteins on receptor DNA binding activity, RXRα or the cell extracts were preincubated with receptor protein at room temperature for 10 minutes before performing the DNA binding assay.”

[1] = target: Flag-TRα/RXRα heterodimer (UniProt P10827-2;P19793 P10827-2:1-410,P19793:1-462); test: EMSA; inhibited by anti-Flag; conditions: tags: N-terminal Flag on TRα; label: 32P
Sequence of Flag-TRα/RXRα heterodimer (P19793 whole entry, one chain of several): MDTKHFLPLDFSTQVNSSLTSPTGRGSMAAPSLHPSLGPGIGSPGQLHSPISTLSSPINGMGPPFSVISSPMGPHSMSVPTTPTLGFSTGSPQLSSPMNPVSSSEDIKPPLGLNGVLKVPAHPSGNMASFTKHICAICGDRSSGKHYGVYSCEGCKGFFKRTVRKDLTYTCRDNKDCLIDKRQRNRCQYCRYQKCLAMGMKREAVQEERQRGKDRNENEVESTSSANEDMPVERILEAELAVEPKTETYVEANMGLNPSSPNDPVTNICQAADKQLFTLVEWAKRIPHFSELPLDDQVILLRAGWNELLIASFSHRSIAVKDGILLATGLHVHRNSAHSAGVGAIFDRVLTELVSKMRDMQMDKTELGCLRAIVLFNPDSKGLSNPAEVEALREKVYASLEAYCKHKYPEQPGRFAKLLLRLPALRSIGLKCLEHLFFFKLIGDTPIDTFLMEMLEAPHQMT
Method: as §3
as §2, with “EDTA).” for “EDTA). To analyze the effect of RXRα or the nuclear proteins on receptor DNA binding activity, RXRα or the cell extracts were preincubated with receptor protein at room temperature for 10 minutes before performing the DNA binding assay.”

Measured: binding result

Sequence of TRβ/RXRα heterodimer (P10828 whole entry, chain 1 of 2): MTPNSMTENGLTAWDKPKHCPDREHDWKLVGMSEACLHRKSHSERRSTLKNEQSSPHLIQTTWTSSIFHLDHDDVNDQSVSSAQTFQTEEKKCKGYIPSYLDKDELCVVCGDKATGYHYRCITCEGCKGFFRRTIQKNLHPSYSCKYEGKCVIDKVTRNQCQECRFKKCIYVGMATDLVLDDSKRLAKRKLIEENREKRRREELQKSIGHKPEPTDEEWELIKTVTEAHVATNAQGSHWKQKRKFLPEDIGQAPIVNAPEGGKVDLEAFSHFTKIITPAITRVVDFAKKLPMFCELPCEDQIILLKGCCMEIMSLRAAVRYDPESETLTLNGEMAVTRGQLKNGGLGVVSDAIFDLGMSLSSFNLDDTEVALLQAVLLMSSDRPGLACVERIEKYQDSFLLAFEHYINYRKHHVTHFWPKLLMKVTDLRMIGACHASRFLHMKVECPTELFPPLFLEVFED
Sequence of TRβ/RXRα heterodimer (P19793 whole entry, chain 2 of 2): as the sequence (P19793 whole entry, one chain of several) above

B1: palindromic TRE (dsDNA)
DNA 1: GATCTCAGGTCATGACCTGAGATC
DNA 2: GATCTCAGGTCATGACCTGAGATC
binds: TRβ/RXRα heterodimer | TRα | RARγ/RXRαm4 | Flag-TRα | [1]
